Experimental data: the supplement of paper PMC9112550, “Optimization of the antimicrobial peptide Bac7 by deep mutational scanning” (BMC Biology, 2022)

System: Escherichia coli TOP10
Test: shrunken log2 fold change of peptide-encoding DNA abundance (4.5 h post-induction vs induction); higher = less antimicrobial activity (less host growth inhibition)
Settings: time post-induction: 4.5 h; library: site-saturation at positions 5, 18, 19, 20
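Also: peptides expressed intracellularly from a pBAD plasmid library in pooled LB shake-flask culture, induced with 0.3% L-arabinose, DNA abundance read by NGS, three biological replicates, DESeq2 with apeglm shrinkage.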

| Sequence | shrunken log2 fold change |
| --- | --- |
| RRIRERPPRLPRPRPRPTMRPRP | 0.732 |
| RRIRDRPPRLPRPRPRPQQWPRP | 0.0413 |
| RRIRVRPPRLPRPRPRPEDCPRP | -0.0557 |
| RRIRWRPPRLPRPRPRPYTCPRP | -1.7 |
| RRIRLRPPRLPRPRPRPVAQPRP | 0.391 |
| RRIRDRPPRLPRPRPRPNARPRP | 0.299 |
| RRIRKRPPRLPRPRPRPQYHPRP | -0.432 |
| RRIRYRPPRLPRPRPRPIRNPRP | -1.17 |
| RRIRLRPPRLPRPRPRPAPLPRP | 0.273 |
| RRIRWRPPRLPRPRPRPYCPPRP | -0.441 |
| RRIRIRPPRLPRPRPRPLINPRP | -0.444 |
| RRIRFRPPRLPRPRPRPVGQPRP | -0.0211 |
| RRIRTRPPRLPRPRPRPLRQPRP | 0.456 |
| RRIRNRPPRLPRPRPRPIYCPRP | -0.858 |
| RRIRERPPRLPRPRPRPCYAPRP | -0.383 |
| RRIRIRPPRLPRPRPRPQIKPRP | -0.853 |
| RRIRTRPPRLPRPRPRPQHDPRP | -0.259 |
| RRIRSRPPRLPRPRPRPVPGPRP | 0.137 |
| RRIRHRPPRLPRPRPRPWHYPRP | 0.137 |
| RRIRARPPRLPRPRPRPHMTPRP | -0.0862 |
| RRIRPRPPRLPRPRPRPSHRPRP | 0.0628 |
| RRIRVRPPRLPRPRPRPEEQPRP | 0.0234 |
| RRIRNRPPRLPRPRPRPMVCPRP | -0.018 |
| RRIRMRPPRLPRPRPRPYGRPRP | 0.0596 |
| RRIRNRPPRLPRPRPRPVNVPRP | -0.304 |

| Sequence | shrunken log2 fold change |
| --- | --- |
| RRIRSRPPRLPRPRPRPVDDPRP | -0.14 |
| RRIRTRPPRLPRPRPRPWHNPRP | -0.0242 |
| RRIRPRPPRLPRPRPRPIMDPRP | -0.00126 |
| RRIRNRPPRLPRPRPRPKQSPRP | -0.135 |
| RRIRARPPRLPRPRPRPREQPRP | 0.825 |
| RRIRLRPPRLPRPRPRPIGNPRP | 0.0592 |
| RRIRWRPPRLPRPRPRPCEIPRP | -0.243 |
| RRIRKRPPRLPRPRPRPCQHPRP | -0.167 |
| RRIRDRPPRLPRPRPRPKAEPRP | -0.0211 |
| RRIRNRPPRLPRPRPRPCLCPRP | -0.275 |
| RRIRKRPPRLPRPRPRPVITPRP | -0.249 |
| RRIRGRPPRLPRPRPRPWTWPRP | 0.339 |
| RRIRMRPPRLPRPRPRPCYTPRP | -0.0524 |
| RRIRDRPPRLPRPRPRPFLHPRP | 0.204 |
| RRIRCRPPRLPRPRPRPGGPPRP | 0.108 |
| RRIRARPPRLPRPRPRPRDNPRP | 0.295 |
| RRIRERPPRLPRPRPRPWPKPRP | -0.102 |
| RRIRLRPPRLPRPRPRPKWDPRP | 0.184 |
| RRIRLRPPRLPRPRPRPTGIPRP | -0.182 |
| RRIRARPPRLPRPRPRPQDAPRP | 0.215 |
| RRIRWRPPRLPRPRPRPSCRPRP | 0.0511 |
| RRIRRRPPRLPRPRPRPNHWPRP | 0.0169 |
| RRIRCRPPRLPRPRPRPVWIPRP | -0.441 |
| RRIRYRPPRLPRPRPRPTGVPRP | -0.0415 |
| RRIRERPPRLPRPRPRPCPQPRP | -0.232 |

| Sequence | shrunken log2 fold change |
| --- | --- |
| RRIRWRPPRLPRPRPRPTDWPRP | 0.581 |
| RRIRKRPPRLPRPRPRPEHCPRP | 0.0607 |
| RRIRWRPPRLPRPRPRPCRCPRP | -0.0961 |
| RRIRARPPRLPRPRPRPHHDPRP | -0.0472 |
| RRIRPRPPRLPRPRPRPIRKPRP | 0.0224 |
| RRIRIRPPRLPRPRPRPLQRPRP | -0.106 |
| RRIRLRPPRLPRPRPRPWIHPRP | -0.487 |
| RRIRGRPPRLPRPRPRPKFVPRP | 0.458 |
| RRIRHRPPRLPRPRPRPFLMPRP | -0.456 |
| RRIRQRPPRLPRPRPRPDKFPRP | -0.513 |
| RRIRCRPPRLPRPRPRPMQYPRP | -0.000361 |
| RRIRARPPRLPRPRPRPHDEPRP | -0.00385 |
| RRIRIRPPRLPRPRPRPTGDPRP | 0.109 |
| RRIRIRPPRLPRPRPRPCYRPRP | -0.44 |
| RRIRFRPPRLPRPRPRPKPHPRP | 1.81 |
| RRIRIRPPRLPRPRPRPCNCPRP | 0.174 |
| RRIRSRPPRLPRPRPRPEYKPRP | 0.0361 |
| RRIRHRPPRLPRPRPRPTSFPRP | 0.0399 |
| RRIRSRPPRLPRPRPRPECLPRP | 0.18 |
| RRIRCRPPRLPRPRPRPKWYPRP | -0.239 |
| RRIRVRPPRLPRPRPRPDQLPRP | 0.112 |
| RRIRFRPPRLPRPRPRPAFVPRP | -0.028 |
| RRIRMRPPRLPRPRPRPKVNPRP | 0.31 |
| RRIRHRPPRLPRPRPRPCAFPRP | -0.176 |
| RRIRTRPPRLPRPRPRPSQSPRP | -0.114 |

| Sequence | shrunken log2 fold change |
| --- | --- |
| RRIRKRPPRLPRPRPRPAIIPRP | -0.0297 |
| RRIRERPPRLPRPRPRPTIIPRP | -0.664 |
| RRIRVRPPRLPRPRPRPLKYPRP | -0.136 |
| RRIRCRPPRLPRPRPRPMALPRP | -0.0797 |
| RRIRHRPPRLPRPRPRPRNQPRP | 0.0527 |
| RRIRSRPPRLPRPRPRPGDMPRP | 0.0129 |
| RRIRCRPPRLPRPRPRPDKYPRP | -0.717 |
| RRIRVRPPRLPRPRPRPCQVPRP | -0.0502 |
| RRIRKRPPRLPRPRPRPWKLPRP | -0.14 |
| RRIRCRPPRLPRPRPRPDFVPRP | -0.196 |
| RRIRRRPPRLPRPRPRPATKPRP | 0.0529 |
| RRIRTRPPRLPRPRPRPHMPPRP | -0.422 |
| RRIRKRPPRLPRPRPRPMMGPRP | -0.0567 |
| RRIRYRPPRLPRPRPRPTNSPRP | -0.342 |
| RRIRKRPPRLPRPRPRPELCPRP | -0.021 |
| RRIRCRPPRLPRPRPRPYVWPRP | -0.369 |
| RRIRHRPPRLPRPRPRPPVWPRP | 0.156 |
| RRIRARPPRLPRPRPRPKHCPRP | 0.0395 |
| RRIRVRPPRLPRPRPRPFTCPRP | -0.216 |
| RRIRVRPPRLPRPRPRPKMRPRP | 0.329 |
| RRIRGRPPRLPRPRPRPSSCPRP | 0.316 |
| RRIRYRPPRLPRPRPRPHDAPRP | -0.27 |
| RRIRVRPPRLPRPRPRPVIHPRP | -0.968 |
| RRIRHRPPRLPRPRPRPWDIPRP | 0.0726 |
| RRIRLRPPRLPRPRPRPPYPPRP | -0.0316 |

| Sequence | shrunken log2 fold change |
| --- | --- |
| RRIRYRPPRLPRPRPRPDMLPRP | -0.0808 |
| RRIRSRPPRLPRPRPRPCLSPRP | -0.000866 |
| RRIRPRPPRLPRPRPRPMAHPRP | -0.165 |
| RRIRMRPPRLPRPRPRPGYSPRP | -0.185 |
| RRIRSRPPRLPRPRPRPPNQPRP | 0.134 |
| RRIRERPPRLPRPRPRPYPQPRP | -0.898 |
| RRIRKRPPRLPRPRPRPAEFPRP | 0.0773 |
| RRIRNRPPRLPRPRPRPKFKPRP | -0.508 |
| RRIRYRPPRLPRPRPRPMGEPRP | 0.0325 |
| RRIRFRPPRLPRPRPRPLDLPRP | -0.366 |
| RRIRLRPPRLPRPRPRPANHPRP | -0.333 |
| RRIRLRPPRLPRPRPRPSHRPRP | -0.0457 |
| RRIRPRPPRLPRPRPRPGAIPRP | 0.0588 |
| RRIRPRPPRLPRPRPRPSERPRP | -0.0297 |
| RRIRKRPPRLPRPRPRPSDLPRP | 0.154 |
| RRIRARPPRLPRPRPRPWPHPRP | -0.0357 |
| RRIRHRPPRLPRPRPRPCYPPRP | -0.384 |
| RRIRIRPPRLPRPRPRPCKWPRP | -0.38 |
| RRIRFRPPRLPRPRPRPDSFPRP | -0.00668 |
| RRIRKRPPRLPRPRPRPHFVPRP | 0.347 |
| RRIRMRPPRLPRPRPRPVFGPRP | 0.411 |
| RRIRLRPPRLPRPRPRPFHNPRP | -0.336 |
| RRIRRRPPRLPRPRPRPSFYPRP | -0.36 |
| RRIRKRPPRLPRPRPRPCGEPRP | 0.166 |
| RRIRRRPPRLPRPRPRPALRPRP | 0.648 |
